Source: patent publication US20070218001A1 (BIOTECH STUDIO, published 2007)
“And” between values parts separate entries of the source, which are not always exact repeats. Equal values may be shown once. Where no end group is shown, it is not given here. The star is where a group is joined. Biotin = O=C1N[C@H]2[C@H](CS[C@H]2CCCCC(=O)*)N1

T1: recombinant phage displaying CASK PDZ domain (PDZ domain of human hCASK, hCASK-PDZopt in pCANTAB5E) (human, UniProt O14936 480-577)
T1 construct: also called wildtype hCASK-PDZ
T1 sequence: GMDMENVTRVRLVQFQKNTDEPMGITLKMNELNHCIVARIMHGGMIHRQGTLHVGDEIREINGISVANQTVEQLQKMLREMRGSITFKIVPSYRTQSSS

B1: biotin-QKAPTKEFYA peptide (peptide)
peptide: Biotin-QKAPTKEFYA
notes: also called cognate peptide ligand of hCASK PDZ; C-terminus of syndecan-2

Key:
biotin-… peptide = experiment: phage ELISA, biotinylated peptide on streptavidin-coated wells, anti-M13 HRP and ABTS, 35 min at room temperature
[1] = biological target: T1, recombinant phage displaying CASK PDZ …; experiment: phage ELISA

| Molecule | OD405 (biotin-… peptide) | binding result [1] |
| --- | --- | --- |
| phage-displayed third PDZ domain of human Dlg1 (in pCANTAB5E) | 0.51 OD405 and 0.46 OD405 | – |
| B1 | – | binds |
